{"source": "the supplement of paper PMC10567573", "parents": {"B1": {"name": "ZER1 (parent)", "chain": "PILRLLPQGISPVSQHWATWALYN"}, "B2": {"name": "ZNF511 (parent)", "chain": "YEHHYHTLHGNVCSFCKRAFPSGH"}}, "data": [{"variants_of": "B1", "assay": "protein stability index of a GFP-peptide fusion (GPS, HEK-293T) (PSI 1-6); higher = more stable", "conditions": "c terminus: a fixed tail appended", "values": [{"variant": "PIRRLLPQGISPVSQHWATWALYN", "protein stability index": 1.95}, {"variant": "PINRLLPQGISPVSQHWATWALYN", "protein stability index": 2.54}, {"variant": "PIARLLPQGISPVSQHWATWALYN", "protein stability index": 3.7}, {"variant": "PIYRLLPQGISPVSQHWATWALYN", "protein stability index": 1.06}, {"variant": "PITRLLPQGISPVSQHWATWALYN", "protein stability index": 2.52}, {"variant": "PIQRLLPQGISPVSQHWATWALYN", "protein stability index": 1.62}, {"variant": "PIWRLLPQGISPVSQHWATWALYN", "protein stability index": 1.02}, {"variant": "PIIRLLPQGISPVSQHWATWALYN", "protein stability index": 1.5}, {"variant": "PIDRLLPQGISPVSQHWATWALYN", "protein stability index": 3.05}, {"variant": "PIERLLPQGISPVSQHWATWALYN", "protein stability index": 1.36}, {"variant": "PIHRLLPQGISPVSQHWATWALYN", "protein stability index": 1.75}, {"variant": "PIGRLLPQGISPVSQHWATWALYN", "protein stability index": 1.44}, {"variant": "PIPRLLPQGISPVSQHWATWALYN", "protein stability index": 1.04}, {"variant": "PIVRLLPQGISPVSQHWATWALYN", "protein stability index": 1.78}, {"variant": "PILRLEPQGISPVSQHWATWALYN", "protein stability index": 2.53}, {"variant": "PILRLFPQGISPVSQHWATWALYN", "protein stability index": 3.51}, {"variant": "PILRLRPQGISPVSQHWATWALYN", "protein stability index": 3.26}, {"variant": "PILRLPPQGISPVSQHWATWALYN", "protein stability index": 2.83}, {"variant": "PILRLDPQGISPVSQHWATWALYN", "protein stability index": 2.56}, {"variant": "PILRLCPQGISPVSQHWATWALYN", "protein stability index": 2.88}, {"variant": "PILRLQPQGISPVSQHWATWALYN", "protein stability index": 1.46}, {"variant": "PHLRLLPQGISPVSQHWATWALYN", "protein stability index": 1.17}, {"variant": "PDLRLLPQGISPVSQHWATWALYN", "protein stability index": 2.52}, {"variant": "PCLRLLPQGISPVSQHWATWALYN", "protein stability index": 2.98}, {"variant": "PALRLLPQGISPVSQHWATWALYN", "protein stability index": 2.46}, {"variant": "PRLRLLPQGISPVSQHWATWALYN", "protein stability index": 3.12}, {"variant": "PKLRLLPQGISPVSQHWATWALYN", "protein stability index": 2.04}, {"variant": "PNLRLLPQGISPVSQHWATWALYN", "protein stability index": 1.5}, {"variant": "PPLRLLPQGISPVSQHWATWALYN", "protein stability index": 3.08}, {"variant": "PQLRLLPQGISPVSQHWATWALYN", "protein stability index": 1.26}, {"variant": "PELRLLPQGISPVSQHWATWALYN", "protein stability index": 2.45}, {"variant": "PTLRLLPQGISPVSQHWATWALYN", "protein stability index": 2.92}, {"variant": "PILQLLPQGISPVSQHWATWALYN", "protein stability index": 1.4}, {"variant": "PILFLLPQGISPVSQHWATWALYN", "protein stability index": 4.37}, {"variant": "PILLLLPQGISPVSQHWATWALYN", "protein stability index": 1.38}, {"variant": "PILVLLPQGISPVSQHWATWALYN", "protein stability index": 2.42}, {"variant": "PILNLLPQGISPVSQHWATWALYN", "protein stability index": 2.38}, {"variant": "PILKLLPQGISPVSQHWATWALYN", "protein stability index": 3.47}, {"variant": "PILSLLPQGISPVSQHWATWALYN", "protein stability index": 2.24}, {"variant": "PILHLLPQGISPVSQHWATWALYN", "protein stability index": 2.46}, {"variant": "PILTLLPQGISPVSQHWATWALYN", "protein stability index": 3.54}, {"variant": "PILILLPQGISPVSQHWATWALYN", "protein stability index": 3.46}, {"variant": "PILWLLPQGISPVSQHWATWALYN", "protein stability index": 2.54}, {"variant": "PILYLLPQGISPVSQHWATWALYN", "protein stability index": 3.25}, {"variant": "KILRLLPQGISPVSQHWATWALYN", "protein stability index": 2.4}, {"variant": "TILRLLPQGISPVSQHWATWALYN", "protein stability index": 2.19}, {"variant": "HILRLLPQGISPVSQHWATWALYN", "protein stability index": 2.39}, {"variant": "RILRLLPQGISPVSQHWATWALYN", "protein stability index": 2}, {"variant": "FILRLLPQGISPVSQHWATWALYN", "protein stability index": 3.24}, {"variant": "SILRLLPQGISPVSQHWATWALYN", "protein stability index": 2.07}, {"variant": "AILRLLPQGISPVSQHWATWALYN", "protein stability index": 5.68}, {"variant": "PILRVLPQGISPVSQHWATWALYN", "protein stability index": 3.75}, {"variant": "PILRTLPQGISPVSQHWATWALYN", "protein stability index": 1.14}, {"variant": "PILRHLPQGISPVSQHWATWALYN", "protein stability index": 2.07}, {"variant": "PILRCLPQGISPVSQHWATWALYN", "protein stability index": 3.09}, {"variant": "PILRALPQGISPVSQHWATWALYN", "protein stability index": 1.65}, {"variant": "PILRGLPQGISPVSQHWATWALYN", "protein stability index": 3.62}, {"variant": "PILRFLPQGISPVSQHWATWALYN", "protein stability index": 2.22}, {"variant": "PILRMLPQGISPVSQHWATWALYN", "protein stability index": 3.4}, {"variant": "PILRYLPQGISPVSQHWATWALYN", "protein stability index": 1.77}, {"variant": "PILRKLPQGISPVSQHWATWALYN", "protein stability index": 1.25}, {"variant": "PILRDLPQGISPVSQHWATWALYN", "protein stability index": 2.04}, {"variant": "PILRQLPQGISPVSQHWATWALYN", "protein stability index": 1.95}, {"variant": "PILRRLPQGISPVSQHWATWALYN", "protein stability index": 1.84}, {"variant": "PILRNLPQGISPVSQHWATWALYN", "protein stability index": 1.99}]}, {"variants_of": "B2", "assay": "protein stability index of a GFP-peptide fusion (GPS, HEK-293T) (PSI 1-6); higher = more stable", "conditions": "c terminus: a fixed tail appended", "values": [{"variant": "YEHHYHTLHGNVCSFCKRAFPLGH", "protein stability index": 2.87}, {"variant": "YEHHYHTLHGNVCSFCKRAFPTGH", "protein stability index": 2.27}, {"variant": "YEHHYHTLHGNVCSFCKRAFPRGH", "protein stability index": 2.03}, {"variant": "YEHHYHTLHGNVCSFCKRAFPPGH", "protein stability index": 2.67}, {"variant": "YEHHYHTLHGNVCSFCKRAFPYGH", "protein stability index": 1.7}, {"variant": "YEHHYHTLHGNVCSFCKRAFPHGH", "protein stability index": 2.99}, {"variant": "YEHHYHTLHGNVCSFCKRAFPQGH", "protein stability index": 1.45}, {"variant": "YEHHYHTLHGNVCSFCKRAFPGGH", "protein stability index": 2.02}, {"variant": "YEHHYHTLHGNVCSFCKRAFPKGH", "protein stability index": 1.8}, {"variant": "YEHHYHTLHGNVCSFCKRAFPMGH", "protein stability index": 2.89}, {"variant": "YEHHYHTLHGNVCSFCKRAFPVGH", "protein stability index": 1.84}, {"variant": "YEHHYHTLHGNVCSFCKRAFPDGH", "protein stability index": 2.33}, {"variant": "YEHHYHTLHGNVCSFCKRAFPAGH", "protein stability index": 2.08}, {"variant": "YEHHYHTLHGNVCSFCKRAFPCGH", "protein stability index": 2.69}, {"variant": "YEHHYHTLHGNVCSFCKRAFPNGH", "protein stability index": 3.01}, {"variant": "YEHHYHTLHGNVCSFCKRAFPWGH", "protein stability index": 1.47}, {"variant": "YEHHYHTLHGNVCSFCKRAFPEGH", "protein stability index": 2.44}, {"variant": "YEHHYHTLHGNVCSFCKRAFPIGH", "protein stability index": 2.24}, {"variant": "YEHHYHTLHGNVCSFCKRAFPFGH", "protein stability index": 2.15}, {"variant": "YEHHYHTLHGNVCSFCKRQFPSGH", "protein stability index": 1.47}, {"variant": "YEHHYHTLHGNVCSFCKREFPSGH", "protein stability index": 2.13}, {"variant": "YEHHYHTLHGNVCSFCKRIFPSGH", "protein stability index": 1.85}, {"variant": "YEHHYHTLHGNVCSFCKRNFPSGH", "protein stability index": 2.37}, {"variant": "YEHHYHTLHGNVCSFCKRTFPSGH", "protein stability index": 2.29}, {"variant": "YEHHYHTLHGNVCSFCKRVFPSGH", "protein stability index": 1.99}, {"variant": "YEHHYHTLHGNVCSFCKRYFPSGH", "protein stability index": 2.25}, {"variant": "YEHHYHTLHGNVCSFCKRMFPSGH", "protein stability index": 2.29}, {"variant": "YEHHYHTLHGNVCSFCKRGFPSGH", "protein stability index": 1.96}, {"variant": "YEHHYHTLHGNVCSFCKRKFPSGH", "protein stability index": 2.11}]}]}
